{"source": "patent EP0896625B1", "test_in_all_cases": "cell-based or functional assay", "key": {"[1]": {"molecular_target": "Native ONCONASE (Rana pipiens)"}, "[2]": {"molecular_target": "[Met-(-1)]rOnc (Rana pipiens)"}, "[3]": {"molecular_target": "[Met-(-1)]rOncG20 (Rana pipiens)"}, "[4]": {"molecular_target": "rEDN(1-21)rOnc (human; Rana pipiens)"}, "[5]": {"molecular_target": "rEDN(1-21)rOncG26"}, "[6]": {"molecular_target": "recombinant human eosinophil-derived neurotoxin (human)"}}}
{"substance": "Placental ribonuclease inhibitor (from UniProt P13489 2-461)", "values": [{"measurement": "Fold Difference, (+)PRI against (-)PRI", "setting": "[1]", "result": 1.2, "unit": "fold"}, {"measurement": "IC50 (ng/ml), (+)PRI, inhibition of protein synthesis in the rabbit reticulocyte lysate", "setting": "[1]", "result": 0.24, "unit": "ng/mL"}, {"measurement": "Fold Difference, (+)PRI against (-)PRI", "setting": "[2]", "result": 1.4, "unit": "fold"}, {"measurement": "IC50 (ng/ml), (+)PRI, inhibition of protein synthesis in the rabbit reticulocyte lysate", "setting": "[2]", "result": 140, "unit": "ng/mL"}, {"measurement": "Fold Difference, (+)PRI against (-)PRI", "setting": "[3]", "result": 0.9, "unit": "fold"}, {"measurement": "IC50 (ng/ml), (+)PRI, inhibition of protein synthesis in the rabbit reticulocyte lysate", "setting": "[3]", "result": 24, "unit": "ng/mL"}, {"measurement": "IC50 (ng/ml), (+)PRI, inhibition of protein synthesis in the rabbit reticulocyte lysate", "setting": "[4]", "result": 3200, "unit": "ng/mL"}, {"measurement": "Fold Difference, (+)PRI against (-)PRI", "setting": "[5]", "result": 21, "unit": "fold"}, {"measurement": "IC50 (ng/ml), (+)PRI, inhibition of protein synthesis in the rabbit reticulocyte lysate", "setting": "[5]", "result": 600, "unit": "ng/mL"}, {"measurement": "Fold Difference, (+)PRI against (-)PRI", "setting": "[6]", "result": "> 30.7", "unit": "fold"}, {"measurement": "IC50 (ng/ml), (+)PRI, inhibition of protein synthesis in the rabbit reticulocyte lysate", "setting": "[6]", "result": "> 40", "unit": "ng/mL"}]}
